Data: the RNAGym collection of RNA variant scans (doi:10.7554/elife.90254)

B1: LINE1-mini (parent)
chain: GGCAGAGCUCAACACAGCGUGGCAAAGUGGCUGUGGCUAGACUGCC

Variants of: B1
Assay: self-cleavage, relative activity (ratio to wild type); higher = more cleavage; in vitro, sequencing; the parent is a self-cleaving ribozyme

Compared with G17C G40A, G17C G40U is higher in self-cleavage: 0.04 for the first, 0.07 for the second.

First: C18U A24C
Second: C18U A24U
The self-cleavage of the first is lower: 0.39 for the first, 0.97 for the second.

First: C18U A24G
Second: G17U U43G
The self-cleavage of the first is higher: 1.01 for the first, 0.06 for the second.

Going from G17U U43A to G17U U43C, the self-cleavage falls from 0.09 to 0.06.

First: C18G G19A
Second: C18G G19U
The self-cleavage of the first is lower: 0.31 for the first, 0.56 for the second.

First: C18G G19C
Second: G17U G19A
The self-cleavage of the first is higher: 0.83 for the first, 0.78 for the second.

Compared with G17U G19U, G17U G19C is higher in self-cleavage: 0.14 for the first, 1.08 for the second.

Compared with C18A U38A, C18A U38C is lower in self-cleavage: 0.49 for the first, 0.09 for the second.

First: C18A U38G
Second: C18U C37G
The self-cleavage of the first is lower: 0.02 for the first, 0.04 for the second.

Going from C18U C37A to C18U C37U, the self-cleavage falls from 0.09 to 0.07.

First: C18A G35C
Second: C18A G35U
The self-cleavage of the first is lower: 0.05 for the first, 0.07 for the second.

Compared with C18A G35A, C18A C23G is higher in self-cleavage: 0.05 for the first, 0.76 for the second.

Compared with C18A C23A, C18A C23U is higher in self-cleavage: 1.02 for the first, 1.29 for the second.

First: C18U A25C
Second: C18U A25U
The self-cleavage of the first is higher: 0.86 for the first, 0.7 for the second.

Compared with C18U A25G, C18A G21U is higher in self-cleavage: 0.26 for the first, 0.77 for the second.

First: C18A G21C
Second: C18A G21A
The self-cleavage of the first is lower: 0.96 for the first, 1.86 for the second.

C18G G40A and C18G G40C are the same in self-cleavage: 0.05 for the first, 0.05 for the second.

Going from C18G G40U to G17C U34A, the self-cleavage rises from 0.06 to 0.07.

Compared with G17C U34C, G17C U34G is higher in self-cleavage: 0.09 for the first, 0.1 for the second.

First: C18G U38G
Second: C18G U38C
The self-cleavage of the first is lower: 0.02 for the first, 0.16 for the second.

First: C18G U38A
Second: G17U A25U
The self-cleavage of the first is higher: 0.38 for the first, 0.12 for the second.

Compared with G17U A25C, G17U A25G is lower in self-cleavage: 0.12 for the first, 0.07 for the second.

Going from G17U A41C to G17U A41U, the self-cleavage falls from 0.1 to 0.09.

Compared with G17U A41G, C18G U43G is higher in self-cleavage: 0.08 for the first, 0.13 for the second.

First: C18G U43A
Second: C18G U43C
The self-cleavage of the first is higher: 0.07 for the first, 0.06 for the second.

First: C18G C42A
Second: C18G C42U
The self-cleavage of the first is higher: 0.07 for the first, 0.05 for the second.

First: C18G C42G
Second: C18A A41C
The self-cleavage of the first is lower: 0.04 for the first, 0.05 for the second.

Going from C18A A41G to C18A A41U, the self-cleavage rises from 0.13 to 0.34.

First: C18G A41G
Second: C18G A41U
The self-cleavage of the first is lower: 0.08 for the first, 0.32 for the second.

Going from C18G A41C to C18A G30A, the self-cleavage rises from 0.03 to 1.63.

First: C18A G30C
Second: C18A G30U
The self-cleavage of the first is higher: 1.99 for the first, 1.55 for the second.

Compared with C18G G22C, C18G G22U is higher in self-cleavage: 0.12 for the first, 0.87 for the second.

Compared with C18G G22A, G17C G29U is lower in self-cleavage: 0.82 for the first, 0.32 for the second.

First: G17C G29A
Second: G17C G29C
The self-cleavage of the first is lower: 0.12 for the first, 0.34 for the second.

Compared with C18G U32A, C18G U32G is higher in self-cleavage: 0.05 for the first, 0.06 for the second.

First: C18G U32C
Second: G17U G44U
The self-cleavage of the first is higher: 0.15 for the first, 0.06 for the second.

Compared with G17U G44C, G17U G44A is higher in self-cleavage: 0.05 for the first, 0.07 for the second.

Compared with C18U C23A, C18U C23G is higher in self-cleavage: 1.27 for the first, 1.56 for the second.

First: C18U C23U
Second: G17U G36U
The self-cleavage of the first is higher: 1.07 for the first, 0.05 for the second.

G17U G36C and G17U G36A are the same in self-cleavage: 0.09 for the first, 0.09 for the second.

Going from G17C G30U to G17C G30A, the self-cleavage rises from 0.05 to 0.94.

Compared with G17C G30C, G17C G36A is lower in self-cleavage: 0.25 for the first, 0.09 for the second.

Going from G17C G36U to G17C G36C, the self-cleavage falls from 0.08 to 0.04.

Compared with C18U G21A, G17U A39C is lower in self-cleavage: 2.7 for the first, 0.04 for the second.

Compared with G17U A39U, G17U A39G is lower in self-cleavage: 0.2 for the first, 0.04 for the second.

Going from C18U A39U to C18U A39G, the self-cleavage falls from 0.78 to 0.08.

First: C18U A39C
Second: G17U G35A
The self-cleavage of the first is higher: 0.16 for the first, 0.07 for the second.

Going from G17U G35C to G17U G35U, the self-cleavage falls from 0.18 to 0.07.

First: G17U U38A
Second: G17U U38C
The self-cleavage of the first is higher: 0.17 for the first, 0.04 for the second.

First: G17U U38G
Second: G17U C46U
The self-cleavage of the first is lower: 0.08 for the first, 0.16 for the second.

First: G17U C46G
Second: G17U C46A
The self-cleavage of the first is lower: 0.12 for the first, 0.13 for the second.

Compared with C18G U20G, C18G U20C is lower in self-cleavage: 0.41 for the first, 0.4 for the second.

Going from C18G U20A to C18G G44A, the self-cleavage falls from 0.41 to 0.07.

First: C18G G44C
Second: C18G G44U
The self-cleavage of the first is higher: 0.1 for the first, 0.05 for the second.

Going from G17C U32G to G17C U32C, the self-cleavage rises from 0.07 to 0.14.

Going from G17C U32A to C18U C42G, the self-cleavage falls from 0.07 to 0.05.

First: C18U C42U
Second: C18U C42A
The self-cleavage of the first is higher: 0.17 for the first, 0.09 for the second.

First: G17U G30C
Second: G17U G30U
The self-cleavage of the first is higher: 0.59 for the first, 0.16 for the second.

Going from G17U G30A to C18G A24G, the self-cleavage falls from 0.82 to 0.44.

Going from C18G A24U to C18G A24C, the self-cleavage falls from 0.76 to 0.17.

First: C18G C37G
Second: C18G C37U
The self-cleavage of the first is lower: 0.06 for the first, 0.09 for the second.

First: C18G C37A
Second: G17C U43A
The self-cleavage of the first is lower: 0.07 for the first, 0.13 for the second.

Going from G17C U43C to C18A G40A, the self-cleavage falls from 0.08 to 0.05.

Going from C18A G40C to C18A G40U, the self-cleavage rises from 0.03 to 0.06.

Going from C18G A26C to C18G A26U, the self-cleavage falls from 0.86 to 0.42.

Going from C18G A26G to C18G G33U, the self-cleavage falls from 0.22 to 0.07.

First: C18G G33C
Second: C18G G33A
The self-cleavage of the first is lower: 0.03 for the first, 0.04 for the second.

Compared with C18A A24U, C18A A24C is lower in self-cleavage: 0.67 for the first, 0.18 for the second.

Compared with C18A A24G, C18G G27U is higher in self-cleavage: 0.56 for the first, 0.61 for the second.

Compared with C18G G27C, C18G G27A is higher in self-cleavage: 0.38 for the first, 1.04 for the second.

First: G17U G40C
Second: G17U G40A
The self-cleavage of the first is higher: 0.17 for the first, 0.05 for the second.

First: G17U G40U
Second: C18A A26G
The self-cleavage of the first is lower: 0.06 for the first, 0.57 for the second.

Going from C18A A26C to C18A A26U, the self-cleavage falls from 2.92 to 0.69.

First: C18A A39G
Second: C18A A39C
The self-cleavage of the first is lower: 0.05 for the first, 0.06 for the second.

Going from C18A A39U to C18G G21C, the self-cleavage falls from 0.76 to 0.62.

First: C18G G21U
Second: C18G G21A
The self-cleavage of the first is higher: 1.38 for the first, 0.77 for the second.

First: G17U A26C
Second: G17U A26G
The self-cleavage of the first is higher: 0.23 for the first, 0.1 for the second.

Going from G17U A26U to C18A C37A, the self-cleavage rises from 0.04 to 0.05.

C18A C37U and C18A C37G are the same in self-cleavage: 0.07 for the first, 0.07 for the second.

First: C18G A39C
Second: C18G A39G
The self-cleavage of the first is lower: 0.06 for the first, 0.07 for the second.

Going from C18G A39U to C18A G36U, the self-cleavage falls from 0.47 to 0.07.

Going from C18A G36C to C18A G36A, the self-cleavage rises from 0.03 to 0.13.

First: C18U A26U
Second: C18U A26C
The self-cleavage of the first is higher: 1.72 for the first, 1.39 for the second.

For C18U A26G, the self-cleavage was 0.65.
